# Assay: soluble on expression in E. coli; label from the status in PepcDB or PDB records
row,Sequence,soluble on expression in E. coli
1,MPISSSSARRAEPAPRPLAEFHPVVRQWFERHFAAPTPAQVEAWPAIREGLSTLVAAPTGSGKTLTAFLAAIDALVVEGLAAGGELADATQVVYVSPLKALSNDIRINLEQPLAGIREELARLGLPDVDIRSAVRTGDTPQVERGAMRKRPPHILVTTPESLYILLGSESGRQMLAGVRSVIVDEIHALAGSKRGSHLALSLERLQALCPRPLLRIGLSATQKPIEKVARFLVGASGNPRDPACRIVDVGYTRPRDLGIEVPPVALEAVMSNDTWELVYDRLAHLAGEHRTTLVFVNTRRMAERVTRFLAERLGSRQVAAHHGSLAKELRLDAEQRLKAGQLKVLVATASLELGIDIGDVELVCQLSSPRSIAAFLQRVGRSGHSVGGTPKGRLFPTSRDDLVECAALLDSVRRGELDSLVLPRQPLDVLAQQIVAEVACQEWREDDLYRLVIRAEPYAGLERERFDEVLRMLAEGYHSRLGVRGAYLHRDALNGLLRGRRGARLTALTSGGTIPDTGDYSVLLEPQGLLVGTVNEDFAVESLAGDVFQLGNTSYRIIRIEPGRVRVEDAQGQPPNIPFWLGEAPGRSDELSASVARLRDTLDELLGEGQALPEGRRLEPAIAWLGATLGLDDGAARQIVEYLARARQALGGLPGSRRLVLERFFDESGGMQLIIHSPHGSRLNRAWGLALRKRFCRSFNFELQAAATEDAIILSLSTSHSFPLDEVWRYLHSASAEHLLVQAVLDAPLFGVRWRWNLTTSLGLPRYAGGRKVPPQLLRMKSEDLLASVFPDQVACLENIVGEREVPDHPLVAQTLDDCLHEAMDCEGWLALLRDMESGAVDLLARDLPAPSALAAEILTARPYAYLDDAPLEERRTQAVQNRRWSDPESADDLGALDLEAIEAVRGEAWPEASNADEMHEALNSLGFLTSGEAEANPGWGEWLAQLSEQRRAGRLDCAGSTLWLAAERLPAMRLVHPAAKVPDAFQAPRGYPPPDSAEAATVELTRARLGGFGPRTAGQLAADLGIGLADQQYALAALEREGYVLRGRFSPGATEEEWCERHLLARIHRYTVKRLRREIEPVERADFMRFLFDWQRLAPGTRGRGAESLATVVEQLEGFQAAAAAWESELLAARVADYASHWLDQLCRSGRIVWARLAGRSKAAGGPLRSAPIVLLPRRELGLWSVLQRDAPEPELSPRAARVLEVLREQGASFFDELSQDAHLLRSELENALGELVSVGRVNADSFAGLRTLLMPADKRSRQERRSRGLPGGMQDAGRWAPLRRAKAEEAGQRLPAEVLEHVARTLLRRYGVVAWRLLEREADWLPPWRELLRVYHRLEARGEIRGGRFIAGLAGEQFALAEAVGLLREVRKRPPDGAMLVVSAVDPLNLVGGLLPGERVPAVTGNRLLYRDGAPLAALVAGKVRMLAEVDGETAQQIRALLI,not soluble
2,MLPDPPRDPFNNLDPAQTVRVLPRHLAGPGQADLETIWAFPFDDGWHLHQGLEGMVFAISPCARLWTRFAPKPEERGADTWTIGMDRAPFGPRAWEITFDATTPAELLRDVHTELLDLYLEDRHSEKNHLVEDPTAPHEVYTPLLTHGWSHSVKTDGTQTFLPPEGLGGVRHRYATTGSDGPVWRAWGGYPSAPHWQAQFSAGAPTTLAAAFTASLISTEPLHRAVKQIPFHTRRHLYVAPAAAPQPPSHLPPAPPSAPHPAGRARLEHHHHHH,soluble
3,MGSDKIHHHHHHMEEVIKLNSVDQYNKMYGLETLHPLVTVVDLSKATVFPTHFTLNYGLYALFLKQTKCGDLRYGRQMYDYQEGTVTSFAPGQVVEVKLNDGVRPMSHGILFHPDLIRGTSLGQEIKHYSFFSYASNEALHLSDDEKKIFQDCLDKVQQELSRPIDKHSKRLIARNIELLLDYCMRFYERQFVTRSKVNKDVLMKFEDLLDVYFQSEQSPNEKLPTVKYFADKVNLSSNYFGDLIKKETGKTAQEYIQGKIINIAKERILASEKTVSEIAYELGFQYPQHFTRIFKKVVGCTPTEYRVIQV,not soluble
4,MSLLMTLVDEIKNRSSHVDAAIDELLPVTRPEELYKASRYLVDAGGKRLRPAVLILAAEAVGSNLRSVLPAAVAVELVHNFTLIHDDIMDRDDIRRGMPAVHVKWGEAGAILAGDTLYSKAFEILSKVENEPVRVLKCMDVLSKTCTEICEGQWLDMDFETRKKVTESEYLEMVEKKTSVLYAAAAKIGALLGGASDEVAEALSEYGRLIGIGFQMYDDVLDMTAPEEVLGKVRGSDLMEGKYTLIVINAFEKGVKLDIFGKGEATLEETEAAVRTLTECGSLDYVKNLAISYIEEGKEKLDVLRDCPEKTLLLQIADYMISREYEGHHHHHH,soluble
5,MSLALAIFDLDETLIHGDCASLWSEQMARLGWVDGKDFLRRDHELMEAYGRGHLQMEDYMAFSLEPIAGRTLEEVEHLVAPWVEEVIEPIIYGDACRCIAEHRKRGDRILIISASGTHLVGPIAARLGVDEYLAIELEAVNGVYTGKTHGVLTYREGKITRLLEWLDQEQENLEGASFYSDSRNDLPLLLRVDHPHVVNPDAVLREHAEINGWPTLSWSEGHHHHHH,soluble
6,MEEVEEFKYEPKSVKEIFIEMKDTVELMVDLAYASLLFGDKEIAEEVLELEERIDLLNYQLMMHSVLAARNVKEAEQVITILQIANAIEDISNAAGDLAKMVLEGVELHPVIKETILEGEEIIGKIQVYPESVIVGKTLGELDLATNTGVWIIAVRRGKRWIFGPNENFKIRAGDVLIGRGTRTSIDHLKEIARGAIRVIGNERA,soluble
7,MNTPFDFPEGAGRLVYVRPVPVAELPEDVQSMARGLDHIYALHGADGERLALVRDRHLAFVLARQNDLAPVNVH,not soluble
8,ADKAASGVLTKLPQKQIQEMKEAFSMIDVDRDGFVSKEDIKAISEQLGRAPDDKELTAMLKEAPGPLNFTMFLSIFSDKLSGTDSEETIRNAFAMFDEQETKKLNIEYIKDLLENMGDNFNKDEMRMTFKEAPVEGGKFDYVKFTAMIKGSGEEEA,soluble
9,MIYSMTAFAHLELKKEWGNAVWEMRSVNQRFLETYFRLPEQFRHLEMSLRERLRSALTRGKVECSLRIELTNSQDKELSLNKDYAEKVIGSLQTLQALAGGGQINLVDLLRYPGVVDSQTQDLDQIGQDLCAGFEEILADFIAMRAREGANLQQLIQQRLDSISKIATQVQAQMPAILQWQKEKLQQRFDELNLQLESQRLEQEIVLTAQRVDVAEELDRLQLHVKETMAILQRGGAVGRKLDFMMQELNRESNTLASKSINADVTNSAVELKVLIEQMREQIQNLE,not soluble
10,MGPTQETYTIVRYQSGTFSKQLDEIVTESPITIKLNGEEYVTVVCTPNYIEDMVIGFLISEGIISSYNDVEELWVQKDNGIVHVKSSKVNPLYQTLYNKRYVTSCCGKGRQGFIFVNDAAKAKDLHDIHVKITPEECFYLMNTLQQSSTTFRQTGGVHNTALCDRNKILLSRMDIGRHNALDKIYGHCLRNDISVKGKIIAFSGRISSEILLKVSKIGCEIVLSKSAPTKLALQLAHDLGITVVGFIRNESCNIYTHPHRIDGYQSNN,not soluble
11,GMPAPLRFSSDKPLLLLIDMQQAVDDPSWGPRNHPQAEQACAGLLQAWRARGLPLIHIRHDSVEPNSTYRPGQPGHAFKPEVEPRPGETVIAKQTNSAFIGTGLEALLRANGWLELVVAGVSTSNSVEATVRMAGNLGFAVCLAEDGCFTFDKTDWHGRRRSADEVHAMSLANLDGEYCRVCGSADILAALGNIAGAA,soluble
12,MGSDKIHHHHHHMSQNVYIGMTLKPWPILLDHYSMSYDGRVSVKSIGYGMHLFKYHGCIMLATRTKVDSTMAYDTITVSAPWWAKDKLHSFLEDTRGDISTEPKVNIFEETEWCRYGILKSSGFSELVLDEGFKQELMGEVDNFASRGESVVSKLTILLHGKTGTGKTGIARALAVEYHRDLYILNLSTVNDATIHKAIRKVPPGAMLLIEDCDCVKATVSRTAESNADNPPLTLGGVLNALDGIIPLDDCLVIMTTNHPDNLDPALIRKGRVDVSIEVPLISAKQVNEDYFERFGAVLNRTEPLLGCEVYELHRRANLRYGVCCKPV,not soluble

# Source: the DeepSol protein solubility set
